Data as given in patent publication US20170296650A1 (Novartis, published 2017).

Assays:
[1] = molecular target: soluble 5-member complex (gH, gL, UL128, UL130, UL131A) (hCMV, UniProt P12824 24-716; P16832 31-278; P16837 28-171; P16772 26-214); assay: Biacore SPR, soluble 5-member complex
[2] = molecular target: T1, hCMV gH + gL + UL128 + UL130 + UL131A (5-member complex; HEK293T co-transfectant) (hCMV, UniProt P12824 24-743; P16832 31-278; P16837 1-171; P16772 1-214); assay: cell competition; competitor 5A2-biotin
T1 construct: whole, on cells; in the functional rows it stands for the complex on virions or transduced cells of the strain or isolate named in the readout; also called gH/gL/UL128-131A complex; pentameric complex

[3] = molecular target: T1, hCMV gH + gL + UL128 + UL130 + UL131A …; assay: cell competition; competitor 10F7-biotin
[4] = molecular target: T1, hCMV gH + gL + UL128 + UL130 + UL131A …; assay: cell competition; competitor 8J16-biotin
[5] = molecular target: T2, hCMV UL130 + UL131A (HEK293T co-transfectant) (hCMV, UniProt P16772 1-214); assay: cell-based or functional assay
[6] = molecular target: T1, hCMV gH + gL + UL128 + UL130 + UL131A …; assay: cell competition; competitor 2F4-biotin
[7] = molecular target: T1, hCMV gH + gL + UL128 + UL130 + UL131A …; assay: cell competition; competitor 8I21-biotin
[8] = molecular target: hCMV UL130 W179R (virus selected with 4I22) (hCMV); assay: cell-based or functional assay
[9] = molecular target: hCMV UL130 Q191K (virus selected with 4I22) (hCMV); assay: cell-based or functional assay
[10] = molecular target: T1, hCMV gH + gL + UL128 + UL130 + UL131A …; assay: cell-based or functional assay
[11] = molecular target: T1, hCMV gH + gL + UL128 + UL130 + UL131A …; assay: cell competition; competitor 4N10-biotin
[12] = molecular target: T1, hCMV gH + gL + UL128 + UL130 + UL131A …; assay: cell-based or functional assay; remark: listed apart in the source
[13] = molecular target: T1, hCMV gH + gL + UL128 + UL130 + UL131A …; assay: cell-based or functional assay; remark: listed apart in the source
[14] = molecular target: T1, hCMV gH + gL + UL128 + UL130 + UL131A …; assay: cell competition; competitor 2C12-biotin
[15] = molecular target: T1, hCMV gH + gL + UL128 + UL130 + UL131A …; assay: cell competition; competitor 4I22-biotin
[16] = molecular target: T1, hCMV gH + gL + UL128 + UL130 + UL131A …; assay: cell competition; competitor 1F11-biotin
[17] = molecular target: T2, hCMV UL130 + UL131A (HEK293T …); assay: cell-based or functional assay; remark: listed apart in the source

B1: 4I22 (antibody, human IgG1, V domains shown)
VH: QVQLVESGGGVVQPGRSLRLSCVASGFTFSSYAMHWVRQAPGKGLEWVAVISYDGDNKFYADSVKGRFRISRDTSKNTLYLEMNSLRAADTAIYYCAREELVGLMPPYYNYGLDVWGQGTTVTVSS
VL: QSVLTQPPSVSAAPGQKVTISCSGSNSNIGNNYVSWYQQLPGRAPKLLIYDNDHRPSGIPDRFSGSKSGTSATLVITGLQTGDEADYYCETWDTSLSAAVVFGGGTKLTVL
notes: fully human IgG1 with unaltered Fc; also called 4I22-biotin; 4122
[1]
  Kd: 310 pM
[2]
  Inhibition of binding (%): 0%
[3]
  Inhibition of binding (%): 100%
[4]
  Inhibition of binding (%): 0%
[5]
  50% neutralization VR1814, ARPE: < 0.01 µg/mL
  50% neutralization VR1814, MRC-9: > 2 µg/mL
[6]
  Inhibition of binding (%): 100%
[7]
  Inhibition of binding (%): 0%
[8]
  fold decrease in susceptibility of escape virus: > 50000 fold
[9]
  fold decrease in susceptibility of escape virus: > 50000 fold
[10]
  EC50 inhibition of cell-cell fusion: 0.076 µg/mL
[11]
  Inhibition of binding (%): 0%
[12]
  neutralization of ARPE infection, isolate TM-20749: 0.01 µg/mL
  neutralization of ARPE infection, isolate TM-31354: 0.028 µg/mL
  neutralization of ARPE infection, isolate TM-E5271: 0.01 µg/mL
  neutralization of ARPE infection, isolate TM-E9361: 0.002 µg/mL
  neutralization of ARPE infection, isolate TM-E14953: 0.012 µg/mL
  neutralization of ARPE infection, isolate TM-E19664: 0.016 µg/mL
  neutralization of ARPE infection, isolate TM-E20744: 0.01 µg/mL
  neutralization of ARPE infection, isolate TM-E28175: 0.006 µg/mL
  neutralization of ARPE infection, isolate TM-E28257: 0.009 µg/mL
[13]
  EC90 neutralization HUVEC, isolate TM-20749: 0.011 µg/mL
  EC90 neutralization HUVEC, isolate TM-31354: 0.012 µg/mL
  EC90 neutralization HUVEC, isolate TM-E5271: 0.001 µg/mL
  EC90 neutralization HUVEC, isolate TM-E9361: 0.016 µg/mL
  EC90 neutralization HUVEC, isolate TM-E14953: 0.012 µg/mL
  EC90 neutralization HUVEC, isolate TM-E19664: 0.013 µg/mL
  EC90 neutralization HUVEC, isolate TM-E20744: 0.02 µg/mL
  EC90 neutralization HUVEC, isolate TM-E28175: 0.009 µg/mL
  EC90 neutralization HUVEC, isolate TM-E28257: 0.001 µg/mL
[14]
  Inhibition of binding (%): 0%
[15]
  Inhibition of binding (%): 100%
[16]
  Inhibition of binding (%): 100%
[17]
  90% neutralization VR1814, ARPE: 0.0015 µg/mL
  90% neutralization VR1814, MRC-9: > 10 µg/mL
